According to US20240002464A1 (published 2024):

T1: HPV16 E6 peptide on HLA-A*02:01 (human)
T1 peptide: TIHDIILECV

B1: TCR1 (TCR, V domains shown)
Valpha: AQKVTQAQTEISVVEKEDVTLDCVYETRDTTYYLFWYKQPPSGELVFLIRRNSFDEQNEISGRYSWNFQKSTSSFNFTITASQVVDSAVYFCALRAGANNLFFGTGTRLTVIP
Vbeta: NAGVTQTPKFQVLKTGQSMTLQCAQDMNHNSMYWYRQDPGMGLRLIYYSASEGTTDKGEVPNGYNVSRLNKREFSLRLESAAPSQTSVYFCASGPWGSSGNTIYFGEGSWLTVV
B2: TCR2 (TCR, V domains shown)
Valpha: AQKVTQAQTEISVVEKEDVTLDCVYETRDTTYYLFWYKQPPSGELVFLIRRNSFDEQNEISGRYSWNFQKSTSSFNFTITASQVVDSAVYFCALRAGANLPVFGTGTRLTVIP
Vbeta: NAGVTQTPKFQVLKTGQSMTLQCAQDMNHNSMYWYRQDPGMGLRLIYYSASEGTTDKGEVPNGYNVSRLNKREFSLRLESAAPSQTSVYFCASGPWGSSGNTIYFGEGSWLTVV
B3: TCR3 (TCR, V domains shown)
Valpha: AQKVTQAQTEISVVEKEDVTLDCVYETRDTTYYLFWYKQPPSGELVFLIRRNSFDEQNEISGRYSWNFQKSTSSFNFTITASQVVDSAVYFCALRAGANTPIFGTGTRLTVIP
Vbeta: NAGVTQTPKFQVLKTGQSMTLQCAQDMNHNSMYWYRQDPGMGLRLIYYSASEGTTDKGEVPNGYNVSRLNKREFSLRLESAAPSQTSVYFCASGPWGSSGNTIYFGEGSWLTVV
B4: TCR4 (TCR, V domains shown)
Valpha: AQKVTQAQTEISVVEKEDVTLDCVYETRDTTYYLFWYKQPPSGELVFLIRRNSFDEQNEISGRYSWNFQKSTSSFNFTITASQVVDSAVYFCALRAGAWPMKFGTGTRLTVIP
Vbeta: NAGVTQTPKFQVLKTGQSMTLQCAQDMNHNSMYWYRQDPGMGLRLIYYSASEGTTDKGEVPNGYNVSRLNKREFSLRLESAAPSQTSVYFCASGPWGSSGNTIYFGEGSWLTVV

Target: T1, HPV16 E6 peptide on HLA-A*02:01
Assay: Kd or kinetics
Description: In this example, the binding activity of the soluble TCR molecule obtained according to Example 2 to the […]-HLA A0201 complex was tested using a BIAcore T200 real-time analysis system. The […]-HLA A0201 complex was prepared by methods well known to those skilled in the art, mainly including purification, renaturation, repurification, and biotinylation. The anti-streptavidin antibody (GenScript) was added to the coupling buffer (10 mM sodium acetate buffer, pH 4.77), and then the antibody was passed through a CMS chip previously activated with EDC and NHS so that the antibody was immobilized on the chip surface, and finally the unreacted activated surface was blocked with a solution of ethanolamine in hydrochloric acid to complete the coupling. The coupling was at a level of about 15,000 RU. A low concentration of streptavidin was allowed to flow through the surface of the chip coated with the antibody, then the […]-HLA A0201 complex was allowed to flow through a detection channel, with the other channel serving as a reference channel. Then 0.05 mM of biotin was allowed to flow through the chip at a flow rate of 10 μL/min for 2 minutes, blocking the remaining binding site for streptavidin.
The kinetic parameters were calculated using the BIAcore Evaluation software to obtain the binding kinetic profiles of the soluble TCR molecules of the present disclosure binding to the […]-HLA A0201 complex, respectively, as shown in FIGS. 7a-7d. […] Also, the binding activity of the soluble TCR molecule of the present disclosure to several complexes of other unrelated antigen short peptides and HLA was also tested by the method.

Q: Does B1 bind?
A: Result: recognises

Q: Does B2 bind?
A: Result: recognises

Q: Does B3 bind?
A: Result: recognises

Q: Does B4 bind?
A: Result: recognises
